The values below come from PMC11167000, “Molecular mechanism of BMP signal control by Twisted gastrulation” (Nature Communications, 2024).

B1: human BMP7 (ligand, UniProt P18075 293-431, looked up)
chain: STGSKQRSQNRSKTPKNQEALRMANVAENSSSDQRQACKKHELYVSFRDLGWQDWIIAPEGYAAYYCEGECAFPLNSYMNATNHAIVQTLVHFINPETVPKPCCAPTQLNAISVLYFDDSSNVILKKYRNMVVRACGCH
notes: Bone morphogenetic protein 7 (BMP7), human; source: bought: Miltenyi Biotec
B3: human CHRDL2 (A25–T429) (natural protein)
chain: ETGARARPDMFCLFHGKRYSPGESWHPYLEPQGLMYCLRCTCSEGAHVSCYRLHCPPVHCPQPVTEPQQCCPKCVEPHTPSGLRAPPKSCQHNGTMYQHGEIFSAHELFPSRLPNQCVLCSCTEGQIYCGLTTCPEPGCPAPLPLPDSCCQACKDEASEQSDEEDSVQSLHGVRHPQDPCSSDAGRKRGPGTPAPTGLSAPLSFIPRHFRPKGAGSTTVKIVLKEKHKKACVHGGKTYSHGEVWHPAFRAFGPLPCILCTCEDGRQDCQRVTCPTEYPCRHPEKVAGKCCKICPEDKADPGHSEISSTRCPKAPGRVLVHTSVSPSPDNLRRFALEHEASDLVEIYLWKLVKGIFHLTQIKKVRKQDFQKEAQHFRLLAGPHEGHWNVFLAQTLELKVTASPDKVTKT
modifications: Asn-linked glycan (predicted at Asn 114)
notes: residues of the vector between the secretion signal and CHRDL2; Chordin-like protein 2 (CHRDL2), human, UniProt Q6WN34, residues A25–T429; also called Chordin superfamily member CHRDL2; source: expressed and purified from dialyzed media using IMAC followed by SEC as the full-length TWSG1
B4: human Twisted gastrulation (TWSG1), full-length glycosylated TWSG1 (Cys26–Phe223) (natural protein)
chain: ETGCNKALCASDVSKCLIQELCQCRPGEGNCSCCKECMLCLGALWDECCDCVGMCNPRNYSDTPPTSKSTVEELHEPIPSLFRALTEGDTQLNWNIVSFPVAEELSHHENLVSFLETVNQPHHQNVSVPSNNVHAPYSSDKEHMCTVVYFDDCMSIHQCKISCESMGASKYRWFHNACCECIGPECIDYGSKTVKCMNCMF
modifications: Asn-linked glycans (predicted at Asn 52, 81 and 147); fully glycosylated for binding, cellular and SEC-MALS assays; cut down to one N-acetylglucosamine with endoglycosidase F1 for crystallization
notes: residues of the vector between the secretion signal and TWSG1; Twisted gastrulation (TWSG1), human, UniProt Q9GZX9, residues C26–F223; Monomer-dimer equilibrium in solution; also called full-length TWSG1; wild-type TWSG1; source: HEK-293T, transient transfection, secreted, purified (IMAC, SEC)
B6: human Growth Differentiation Factor 5 (GDF5, A382–R501) (ligand)
chain: MAPLATRQGKRPSKNLKARCSRKALHVNFKDMGWDDWIIAPLEYEAFHCEGLCEFPLRSHLEPTNHAVIQTLMNSMDPESTPPTCCVPTRLSPISILFIDSANNVVYKQYEDMVVESCGCR
notes: N-terminal methionine of the expression construct; Growth differentiation factor 5 (GDF5), human, UniProt P43026, residues A382–R501, no tags; Disulfide-linked dimer
B7: human BMP2 (ligand, UniProt P12643 283-396, looked up)
chain: QAKHKQRKRLKSSCKRHPLYVDFSDVGWNDWIVAPPGYHAFYCHGECPFPLADHLNSTNHAIVQTLVNSVNSKIPKACCVPTELSAISMLYLDENEKVVLKNYQDMVVEGCGCR
notes: Bone morphogenetic protein 2 (BMP2), human; it speaks of BMP ligands in general as dimeric

The target of one series is TWSG1 Ile40Ala (human, UniProt Q9GZX9 26-223, Ile40Ala, Asn-linked glycans (predicted Asn52, Asn81, Asn147; fully glycosylated, HEK-type expression without kifunensine); disulfide-rich. Parent construct inferred: the methods state that the C26-F223 constru). In words: SPR; as a1, BMP7 immobilized at higher level (7372 RU). The conditions noted are these: both partners purified. In general terms: SPR reads the build-up and loss of mass on a sensor chip optically.

Series [1] concerns the target B4. In words: SPR; equilibrium binding, Biacore T200, 25 °C; BMP2, BMP7, GDF5 or CHRDL2 amine-coupled to a CM5 chip, TWSG1 proteins as analytes; 0.15 M NaCl, 20 mM HEPES pH 7.5, 2 mM CaCl2, 0.005% Tween 20; 1:1 binding isotherm. The conditions noted are these: both partners purified.
In the series “human BMP2” the target is B7. Described as above. The conditions noted are these: both partners purified.
The target of the series “human BMP7” is B1. The series is described as above. The conditions noted are these: both partners purified.
Series [2] deals with B6. Described as above. The conditions noted are these: both partners purified.
Series [3] deals with the molecule itself. In words: SEC-MALS; Superdex 200 HR 10/30, 150 mM NaCl, 10 mM HEPES pH 7.5, 2 mM CaCl2, 21 °C; proteins at 2 mg/ml, 0.1 ml per injection. For orientation: In gel filtration, larger molecules generally elute earlier.
In series [4] the target is B3. The description is as above. The note with it: both partners purified.
In series [5] the target is B3. In words: SPR; equilibrium binding, Biacore T200, 25 °C; BMP2, BMP7, GDF5 or CHRDL2 amine-coupled to a CM5 chip, TWSG1 proteins as analytes; 0.15 M NaCl, 20 mM HEPES pH 7.5, 2 mM CaCl2, 0.005% Tween 20; 1:1 binding isotherm. The conditions noted are these: both partners purified.
Series [6] deals with the molecule itself. The experiment in a line: crystal structure; TWSG1 NTD and GDF5 mixed 1:1 mol:mol, crystallized with CaCl2; 1.96 Å.

For the molecule B1, the Kd (in general, the constant that tells how readily two partners part at equilibrium) in the series with TWSG1 Ile40Ala was 454 µM. The binding result in [1] was “binds”.

B2: human TWSG1 N-terminal domain (TWSG1 NTD, C26–S83) (domain or fragment)
chain: ETGCNKALCASDVSKCLIQELCQCRPGEGNCSCCKECMLCLGALWDECCDCVGMCNPRNYS
notes: residues of the vector between the secretion signal and TWSG1 NTD; Twisted gastrulation (TWSG1), human, N-terminal domain, residues C26–S83; Treated with endoglycosidase F1 in the purification described; The structural description gives the NTD as Cys26–Arg80; source: expressed and purified from dialyzed media similar to full-length TWSG1 (IMAC, HRV 3C cleavage, IMAC, SEC); not shown: mono Venus …
Consider B2, for which the Kd with human BMP2 was 1010 nM; with human BMP7, 94 nM; in series [2] it was 380 nM.

On to B3, for which, in series [3], the binding result was “binds”.

On to B4, for which the stoichiometry N – broadly, a count of units in the complex or per binding partner – in [3] worked out at 2. In the series with human CHRDL2 (A25–T429) [4], the binding result is given as “binds”.

B5: human TWSG1 C-terminal domain (TWSG1 CTD, T85–F223) (domain or fragment)
chain: ETGTPPTSKSTVEELHEPIPSLFRALTEGDTQLNWNIVSFPVAEELSHHENLVSFLETVNQPHHQNVSVPSNNVHAPYSSDKEHMCTVVYFDDCMSIHQCKISCESMGASKYRWFHNACCECIGPECIDYGSKTVKCMNCMF
notes: residues of the vector between the secretion signal and the TWSG1 domain; Twisted gastrulation (TWSG1), human, C-terminal domain, residues T85–F223; The methods sentence on this construct says 'followed by ETG, TWSG1 NTD' where CTD must be meant; The structural description gives the CTD as Pro87–Phe223; source: expressed and purified from dialyzed media using IMAC followed by SEC as the …
With B5, the “fold weaker than the TWSG1 NTD” value (with human BMP2; with human BMP7; in [2]) was ~100 fold each time. Further, the dissociation constant (Kd) with human CHRDL2 (A25–T429) [5] was 460 nM.

Regarding B6, the binding result in series [6] and in [1] was “binds” in each case.

With B7, in [1], the binding result is “binds”.
